Source: US10400009B2, “β-sheet breaker peptide used for preventing and/or treating alzheimer's disease” (TIANJIN MEDICAL UNIVERSITY, priority 2014, dated 2019)
Ends that are not written are not given here.

How the values were obtained:
Aβ [1] = target: T1, Aβ (Homo sapiens, UniProt P05067); conditions: from Chinese patent CN 101531703A; cited from earlier work
Aβ1-42 [2] = target: T2, Aβ1-42 (Homo sapiens, UniProt P05067); experiment: ThT fluorescence spectrophotometry of Aβ1-42 aggregation; assay type: biochemical; conditions: Aβ1-42 11.07 μmol/L, peptide 44.3 μmol/L, 37° C., 24 h, PBS pH 7.4; x ± S
T2 construct: purchased Sigma, Inc. (US)
Protocol: 1.2 the Inhibition Effect of HPYD on Aβ Aggregation was Analyzed by ThT Fluorescence Spectrophotometry.
The degree of Aβ aggregation may be reflected by ThT fluorescence intensity. Aβ1-42 lyophilized powder was formulated in 50 mmol/L PBS phosphate buffer (pH 7.4) to obtain a solution in a concentration of 22.15 μmol/L. The polypeptides H102 and HPYD were also formulated in 50 mmol/L PBS phosphate buffer (pH 7.4) to obtain a solution in a concentration of 88.60 μmol/L. In the experiment, Aβ1-42 was mixed with H102 or HPYD in 1:1 volume ratio to a final concentration of 11.07 μmol/L and 44.3 μmol/L, respectively. […] ThT fluorescence intensity was measured by using VARIAN PTC-Au00-01058 fluorescence spectrophotometer at the excitation wavelength of 453 nm and emission wavelength of 478-486 nm. […]
The fluorescence intensity from the aging group (in which Aβ1-42 lyophilized powder was formulated in 50 mmol/L PBS phosphate buffer (pH 7.4) to obtain a solution in a concentration of 11.07 μmol/L, and the obtained solution was incubated at 37° C. for 24 hours) from which baseline fluorescence intensity was subtracted would be taken as 100%, and the inhibitory rate of the drug on Aβ1-42 in each group was calculated. […]
Inhibitory rate=(the relative fluorescence intensity of 1-β sheet blocking peptide/the relative fluorescence intensity of Aβ1-42)×100%

Aβ1-42 [3] = target: T2, Aβ1-42; experiment: FT-IR spectrometry of Aβ1-42 secondary structure (β-sheet); assay type: biochemical; conditions: co-incubation with Aβ1-42 at 37° C. for 72 h
Protocol: 1.3 the Inhibition Effect of HPYD on Aβ1-42 Aggregation was Observed by FT-IR Spectrometry.
22.15 μmol/L Aβ1-42 solution in PBS phosphate buffer was formulated in quadruplicate as described in the above 1.2 section. To two solutions, PBS phosphate buffer was added in equal volume respectively and incubated alone at 37° C. for 30 min (30 min, aging group) and 72 h (72 h, aging group). To the other two solutions, H102 (88.60 μmol/L) and HPYD (88.60 μmol/L) were added in equal volume respectively and co-incubated at 37° C. for 72 h. After incubation, each sample was vacuum lyophilized. Then, 3.5 μg of H102 and 3.7 μg of HPYD were respectively mixed with anhydrous potassium bromide (120-180 mg) thoroughly, and pressurized for 5 min by tablet machine to form potassium bromide tablet. The measurement and analysis were carried out by using Nicolet Magna 760 FT-IR instrument, with a resolution of 4 cm^−1 and a spectrum range of 3500-400 cm^−1. The amide I band spectrum at 1700-1600 cm^−1 was analyzed using Origin 8.0 software. The fitting range was expanded to 1750-1550 cm^−1 due to the complexity of the components in the samples and the effect of vibration peaks close to amide I band on the secondary structure.
In the above-mentioned studies, Aβ1-42 was used as negative control, and H102 was used as positive control.

Aβ1-42 [4] = target: T2, Aβ1-42; experiment: Electron microscopy of Aβ1-42 fiber formation; assay type: biochemical; conditions: for Aβ fibers observed by electron microscope: co-incubation with Aβ1-42 for 5 days at 37° C.
Protocol: 1.4 the Inhibition Effect of HPYD on Aβ Aggregation was Observed by Using Electron Microscope. Aβ1-42 solution in PBS phosphate buffer (11.07 μmol/L, 20 μl) was formulated as described in the above 1.2 section, and incubated alone at 37° C. for 5 days. Meanwhile, Aβ1-42 (22.15 μmol/L, 10 μl) was respectively co-incubated with […] or HPYD (88.61 μmol/L, 10 μl) under the same conditions for 5 days. 5 μl sample was taken from each group and dropped on the carbon support film on 300-mesh deionized copper grids, and then kept still at ambient temperature for 15 min. The samples were negatively stained in dark with 2% uranyl acetate for 2 min. After drying, the samples were observed using transmission electron microscope. In the above-mentioned studies, Aβ1-42 was used as negative control, and […] was used as positive control.

Aβ [5] = target: T1, Aβ; experiment: Immunohistochemical staining of Aβ in brains of APP/PS1 double transgenic mice; assay type: in vivo; parameters: from tissue; host or cells: brain (cortex, hippocampus CA1) of APP/PS1 double transgenic mice; conditions: nasal 33 mg/ml at 5 μl/d, 30 days, n = 7, x ± S
Protocol: (§1) 1.1 Animals: Fourteen APP/PS1 double transgenic mice were randomized into model group and drug administration group. Seven C57BL/6J mice with the same age and genetic background were used in normal control group. These mice were all purchased from the Experimental Animal Research Center of Peking Union Medical College, Chinese Academy of Medical Sciences. By way of nasal administration, 33 mg/ml HPYD in physiological saline solutions were administered to the mice in drug administration group at a rate of 5 μl/d using drug delivery devices, and the same volume of physiological saline solutions were administered nasally to the mice in normal control group and model group. The detection was carried out 30 days after the administration.
(§2) 1.2 Drugs and reagents: Anti-Aβ1-42 antibody was purchased from Chemicon Inc. Anti-APP antibody, ready-to-use SABC Immunohistochemistry Staining Kit, DBA Color Development Kit and 0.1% polylysine were purchased from Wuhan Boster Biological Technology, Ltd. Other reagents have analytical purity.
(§3) 1.3 Immunohistochemical Staining: After Morris Water Maze was carried out in order to determine the learning ability of the experimental mice, the mice were anaesthetized by celiac injection with 0.1 kg/L chloral hydrate at a dose of 4 ml/kg. Rapid intubation was carried out via left ventricle. […]

APP = experiment: Immunohistochemical staining of APP in brains of APP/PS1 double transgenic mice; assay type: in vivo; conditions: nasal 33 mg/ml at 5 μl/d, 30 days, n = 7, x ± S
Protocol: as §1, §2, §3

[6] = tested on: APP/PS1 double transgenic mice; experiment: Morris Water Maze place navigation test; assay type: in vivo; conditions: nasal 33 mg/ml at 5 μl/d, 30 days, n = 7
Protocol: as §1, with “group.” for “group. These mice were all purchased from the Experimental Animal Research Center of Peking Union Medical College, Chinese Academy of Medical Sciences.”, “group in” for “group at”, “was performed” for “was carried out”
(§4) 1.2 Morris Water Maze test: (1) Place Navigation: A platform is placed in a circle within the third quadrant of water maze. Each mouse swims twice (90 s/time) during the same time periods of every day for 5 days. The time required for a mouse's finding and climbing onto the platform, i.e. escape latency, is recorded. If the mouse could not find the platform within 90 s, it is guided to the platform and kept for 20 s. In this case, the escape latency is recorded as 90 s. (2) Spatial Probe: The platform is removed at day 6, and during the same time period, a water entry point is optionally selected for putting a mouse into water. Each mouse swims once (90 s/time). The swim track of the mouse within 90 s, the numbers of leaping over the hidden platform, the original swimming angle after water entry, and so on are recorded for testing the memory ability of the mouse.
1.3 Data processing: The data obtained is expressed in mean±standard deviation (χ±5). Statistical analysis was performed using statistical software SPSS16.0. One-way ANOVA and pairwise comparison were employed. P<0.05 represents that the difference is statistically significant.

[7] = tested on: APP/PS1 double transgenic mice; experiment: Morris Water Maze spatial probe test; assay type: in vivo; conditions: 30 days, n = 7
Protocol: as §1, with “group.” for “group. These mice were all purchased from the Experimental Animal Research Center of Peking Union Medical College, Chinese Academy of Medical Sciences.”, “group in” for “group at”, “was performed” for “was carried out”
as §4, with “(2) Spatial Probe: The platform is removed at day 6, and during the same time period, a water entry point is optionally selected for putting a mouse into water. Each mouse swims once (90 s/time).” left out, “mouse. […]” for “mouse.”

Row | Sequence | inhibitory rate on Aβ aggregation (Aβ [1]) [%] | Inhibitory rate (%) on Aβ1-42 aggregation (Aβ1-42 [2]) [%] | transmittance in each wavenumber representing secondary structures, versus Aβ incubated alone for 72 h (Aβ1-42 [3]) | Aβ fibers observed by electron microscope (Aβ1-42 [4]) | content of β-sheet (FT-IR, 1640-1620 cm^−1) (Aβ1-42 [3]) | Aβ ratio of positive cells (%), Cortex (Aβ [5]) [%] | Aβ ratio of positive cells (%), Hippocampus CA1 area (Aβ [5]) [%] | APP ratio of positive cells (%), Cortex (APP) [%] | APP ratio of positive cells (%), Hippocampus CA1 area (APP) [%] | daily mean escape latency ([6]; 1 d) [s] | daily mean escape latency ([6]; 2 d) [s] | daily mean escape latency ([6]; 3 d) [s] | daily mean escape latency ([6]; 4 d) [s] | daily mean escape latency ([6]; 5 d) [s] | inhibition effect on Aβ aggregation by electron microscopy, compared with H102 (Aβ1-42 [4]; co-incubation with Aβ1-42 for 5 days) | numbers of leaping over the hidden platform (numbers) ([7]; day 6, 90 s, nasal 33 mg/ml at 5 μl/d) | Orientation angles (degree) ([7]; day 6, nasal 33 mg/ml at 5 μl/d)
1 | HKQLPFFEED [H102, reference compound] | 27.84 | 14.168 ± 0.038 | significantly higher transmittance | Aβ fibers were significantly decreased |  |  |  |  |  |  |  |  |  |  |  |  | 
2 | HKQLPFYEED [HPYD] |  | 27.013 ± 0.018 | significantly higher transmittance | significantly decreased and thinner | lowest | 15.85 ± 2.77 | 11.09 ± 2.47 | 14.25 ± 3.25 | 12.75 ± 1.83 | 88.127 ± 4.137 | 80.404 ± 15.646 | 67.740 ± 24.389 | 45.950 ± 19.211 | 24.974 ± 9.685 | stronger inhibition effect on Aβ aggregation than H102 | 2.25 ± 1.258 | 40.478 ± 26.533
